Test results as given in the supplement of paper PMC10126150.
± gives the standard deviation of the averaged measurements.

System: ATP
Test: switch fluorescence ratio, 500 uM ATP over buffer (Cy3 cluster intensity, sum of 5 cycles each) (fold (ratio)); higher = stronger signal-on switching upon ATP binding; sequences stand for … in TCGTCGGCAGCGTCAGATGTGTATAAGAGACAGTTTTTTTTTTTTTTTTTTTTTTTTT…TC
Conditions: aptamer strand: ATP DNA aptamer (quencher-CACCTGGGGGAGTATTGCGGAGGAAGG + anchor), 100 nM annealed; ATP concentration: 500 uM
Outline: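 Values give the fluorescence ratio for each switch-domain sequence, averaged from per-cluster ratios of summed target-cycle to summed buffer-cycle Cy3 intensity. The Cy3-labelled switching-strand clusters sat on a modified Illumina MiSeq flow-cell, were annealed to 100 nM quencher-labelled ATP aptamer, and were imaged in selection buffer, then after 15 min with 500 uM ATP at 22 °C. Five cycles ran with NaOH stripping and re-annealing between them, and clusters outside 100-1000 RFU were excluded.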
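Note: ATP exposure 15 min at 22 °C before imaging.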

GGTAAAAGTT
switch fluorescence ratio: 1.01 ± 0.022

GGTAAACAGG
switch fluorescence ratio: 1.04 ± 0.031

GGTAAATAAG
switch fluorescence ratio: 0.961 ± 0.018

GGTAAATGGG
switch fluorescence ratio: 0.957 ± 0.011

GGTAACCGCT
switch fluorescence ratio: 1.01 ± 0.03

GGTAACCTTT
switch fluorescence ratio: 1.43 ± 0.58

GGTAACGACA
switch fluorescence ratio: 1.02 ± 0.019

GGTAAGGGTT
switch fluorescence ratio: 0.9866 ± 0.0081

GGTAAGTTTG
switch fluorescence ratio: 1.03 ± 0.028

GGTAATATTT
switch fluorescence ratio: 0.998 ± 0.031

GGTAATGGTG
switch fluorescence ratio: 1.0095 ± 0.00021

GGTAATTGCG
switch fluorescence ratio: 0.99 ± 0.022

GGTACACGGG
switch fluorescence ratio: 1.01 ± 0.054

GGTACAGTTA
switch fluorescence ratio: 0.985 ± 0.016

GGTACGGGGG
switch fluorescence ratio: 1 ± 0.013

GGTACGGTAA
switch fluorescence ratio: 1.11 ± 0.038

GGTACGTATG
switch fluorescence ratio: 0.986 ± 0.036

GGTACTA
switch fluorescence ratio: 1.02 ± 0.0021

GGTACTGGAG
switch fluorescence ratio: 1.04 ± 0.034

GGTAGAAGCG
switch fluorescence ratio: 1.02 ± 0.026

GGTAGAAGGG
switch fluorescence ratio: 0.989 ± 0.042

GGTAGAATTA
switch fluorescence ratio: 0.979 ± 0.032

GGTAGCTTGG
switch fluorescence ratio: 1.13 ± 0.17

GGTAGGAGAT
switch fluorescence ratio: 1.05 ± 0.036

GGTAGGGATG
switch fluorescence ratio: 0.962 ± 0.024

GGTAGGGGGG
switch fluorescence ratio: 1.01 ± 0.035

GGTAGGGGGT
switch fluorescence ratio: 1 ± 0.03

GGTAGGTGGT
switch fluorescence ratio: 0.98 ± 0.022

GGTAGTATGG
switch fluorescence ratio: 1 ± 0.03

GGTAGTCCAC
switch fluorescence ratio: 1.01 ± 0.027

GGTAGTCCGG
switch fluorescence ratio: 1.02 ± 0.054

GGTAGTCCGT
switch fluorescence ratio: 1.03 ± 0.016

GGTAGTGGGT
switch fluorescence ratio: 1 ± 0.013

GGTAGTGTTT
switch fluorescence ratio: 0.998 ± 0.035

GGTAGTTAAA
switch fluorescence ratio: 0.999 ± 0.024

GGTAGTTTCA
switch fluorescence ratio: 0.9966 ± 0.00047

GGTATAAGGA
switch fluorescence ratio: 0.996 ± 0.016

GGTATATGGG
switch fluorescence ratio: 0.994 ± 0.03

GGTATCACGG
switch fluorescence ratio: 0.9912 ± 0.0045

GGTATCCGTG
switch fluorescence ratio: 1.019 ± 0.0085

GGTATGAAGG
switch fluorescence ratio: 0.9664 ± 0.0095

GGTATGACTT
switch fluorescence ratio: 1.03 ± 0.07

GGTATGATGG
switch fluorescence ratio: 0.991 ± 0.01

GGTATGCGGT
switch fluorescence ratio: 0.974 ± 0.027

GGTATGGATC
switch fluorescence ratio: 0.9869 ± 0.0084

GGTATGGGAC
switch fluorescence ratio: 1 ± 0.022

GGTATGGGTC
switch fluorescence ratio: 0.947 ± 0.034

GGTATGTAAG
switch fluorescence ratio: 0.995 ± 0.02

GGTATGTACG
switch fluorescence ratio: 1.03 ± 0.054

GGTATGTCGA
switch fluorescence ratio: 0.954 ± 0.075

GGTATTAAGG
switch fluorescence ratio: 1.02 ± 0.013

GGTATTAGAT
switch fluorescence ratio: 1.01 ± 0.049

GGTATTAGGG
switch fluorescence ratio: 1.002 ± 0.0014

GGTATTCAGG
switch fluorescence ratio: 1.03 ± 0.018

GGTATTCATG
switch fluorescence ratio: 1.01 ± 0.011

GGTATTCATT
switch fluorescence ratio: 0.995 ± 0.036

GGTATTGGGC
switch fluorescence ratio: 0.9875 ± 0.0056

GGTATTTATT
switch fluorescence ratio: 1.01 ± 0.019

GGTATTTGTA
switch fluorescence ratio: 0.991 ± 0.031

GGTATTTGTT
switch fluorescence ratio: 1.01 ± 0.032

GGTATTTTGC
switch fluorescence ratio: 0.979 ± 0.048

GGTATTTTTT
switch fluorescence ratio: 0.997 ± 0.025

GGTCAATGTG
switch fluorescence ratio: 0.987 ± 0.033

GGTCAATTAT
switch fluorescence ratio: 1.05 ± 0.068

GGTCACAAGA
switch fluorescence ratio: 1 ± 0.032

GGTCACGGGT
switch fluorescence ratio: 0.981 ± 0.031

GGTCAGGGGC
switch fluorescence ratio: 1.08 ± 0.017

GGTCATAGAC
switch fluorescence ratio: 0.991 ± 0.026

GGTCATTATT
switch fluorescence ratio: 0.968 ± 0.057

GGTCATTCAA
switch fluorescence ratio: 0.982 ± 0.027

GGTCCAACTG
switch fluorescence ratio: 0.987 ± 0.036

GGTCCAGGGC
switch fluorescence ratio: 1.08 ± 0.04

GGTCCCATCG
switch fluorescence ratio: 0.985 ± 0.019

GGTCCCGGGG
switch fluorescence ratio: 1.05 ± 0.026

GGTCCGATCG
switch fluorescence ratio: 0.9694 ± 0.0045

GGTCCGGGGA
switch fluorescence ratio: 0.989 ± 0.013

GGTCCGGGGG
switch fluorescence ratio: 1.02 ± 0.025
